Here are results for four molecules from patent publication US20260209364A1 (NB HEALTH LABORATORY, published 2026).

The target of assay [1] is T1, human CCR7 (human, UniProt P32248 25-378).
T1 sequence: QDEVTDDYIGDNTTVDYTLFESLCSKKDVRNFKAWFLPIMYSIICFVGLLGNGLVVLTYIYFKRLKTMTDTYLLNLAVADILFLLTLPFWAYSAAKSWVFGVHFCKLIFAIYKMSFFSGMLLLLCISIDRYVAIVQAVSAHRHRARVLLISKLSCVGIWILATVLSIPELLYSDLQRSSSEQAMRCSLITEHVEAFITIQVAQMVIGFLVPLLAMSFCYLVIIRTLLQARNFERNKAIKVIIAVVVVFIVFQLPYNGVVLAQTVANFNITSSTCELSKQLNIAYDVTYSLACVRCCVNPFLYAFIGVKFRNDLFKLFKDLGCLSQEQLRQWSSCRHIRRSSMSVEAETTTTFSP
Put plainly: cell-based or functional assay.

In assay [2] the target is T1, human CCR7. Put plainly: cell-based or functional assay. The source holds these as a separate data set.

B1: humanized anti-CCR7 antibody NB007-01 (antibody, human IgG1, kappa, V domains shown)
VH: EVQLVQSGPEVVKPGASVKLSCKASGYSFTGYYMHWVKQAPGQGLEWIGRVNPNQGGTSYNKKFKVRVTITVDRSISTAYMEFSRLRSDDTVVYYCARSESNNFYAMDYWGQGTSVTVSS
VL: DIVMTQSPLSLSVTPGQPASISCRSSQSLVHSNGNTYLCWYLQKPGQSPQLLIYRVSNKFSGVPDRFSGSGSGTDFTLKISRVEAEDVGVYYCFQGSHVPHTFGQGTKVEIKR
Take B1: in the assay with human CCR7 [1], the “IC50, inhibition of CCL19-dependent cell migration of Granta-519 cells” value was 25.5 nM; the “IC50, inhibition of CCL19-induced intracellular Ca2+ signaling in hCCR7 gene-transfected cells” value is 21.4 nM; the “IC50, inhibition of CCL21-induced intracellular Ca2+ signaling in hCCR7 gene-transfected cells” value was 17.8 nM; the “half maximal inhibitory concentration (IC50), CCL21-induced intracellular Ca2+ signaling in MJ cells” value turned out to be 14.8 nM. Moreover, the “IC50 (nM), inhibition of intracellular Ca2+ signaling in human CCR7 gene-transfected cells stimulated with 5x10^-8 M CCL21” value (“IC50 (nM), inhibition” below) in the assay with human CCR7 [2] came to 18.2 nM.

B2: humanized anti-CCR7 antibody NB007-02 (antibody, human IgG1, kappa, V domains shown)
VH: EVQLVQSGPEVVKPGASVKLSCKASGYSFTGYYMHWVKQAPGQGLEWIGRVNPNQGGTSYNKKFKVRVTLTVDRSISTAYMEFSRLRSDDTVVYYCARSESNNFYAMDYWGQGTSVTVSS
VL: DIVMTQSPLSLSVTPGQPASISCRSSQSLVHSNGNTYLCWYLQKPGQSPQLLIYRVSNRFSGVPDRFSGSGSGTDFTLKISRVEAEDVGVYYCFQGSHVPHTFGQGTKVEIKR
Consider B2, for which the “IC50 (nM), inhibition” value with human CCR7 [2] came to 16.4 nM.

B3: chimeric anti-CCR7 antibody VH0/VL0 (antibody, human IgG1, kappa, V domains shown)
VH: EVQLQQSGPDLVKPGASVKISCKASGYSFTGYYMHWVKQSHGKSLEWIGRVNPNNGGTSYNKKFKVKAILTVDRSSSTAYMEFRSLTLEDSAVYYCARSESNNFYAMDYWGQGKSVTVSS
VL: DILMTQTPLSLPVSLGDQVSISCRSSQSLVHSNGNTYLCWYLQKPGQSPKLLIYRVSNRFSGVPDRFSGSGSGTDFTLKISRVEAEDLGVYFCFQGSHVPHTFGSGTKLEIKR
Turning to B3, the “IC50 (nM), inhibition” value with human CCR7 [2] turned out to be 16.2 nM.

B4: humanized anti-CCR7 antibody NB007-03 (antibody, human IgG1, kappa, V domains shown)
VH: EVQLVQSGPEVVKPGASVKLSCKASGYSFTGYYMHWVKQAPGQGLEWIGRVNPNNGGTSYNKKFKVRVTLTVDRSISTAYMEFSRLRSDDTVVYYCARSESNNFYAMDYWGQGTSVTVSS
VL: DIVMTQTPLSLSVTLGQPASISCRSSQSLVHSNGNTYLCWYLQKPGQSPQLLIYRVSNRFSGVPDRFSGSGSGTDFTLKISRVEAEDVGVYYCFQGSHVPHTFGSGTKVEIKR
With B4, the “IC50 (nM), inhibition” value in the assay with human CCR7 [2] is 12.5 nM.
